Experimental findings from publication PMC8600091 are described below.

In series [1] the target is MBD2 MBD R188K (Homo sapiens, UniProt Q9UBB5 143-220, R188K). Kind of series: ITC.
The target of series [2] is MBD2 MBD R166K/R188K (Homo sapiens, UniProt Q9UBB5 143-220, R166K;R188K). Kind of series: ITC.
Sequence of MBD2 MBD R166K/R188K (Q9UBB5 143-220 R166K/R188K): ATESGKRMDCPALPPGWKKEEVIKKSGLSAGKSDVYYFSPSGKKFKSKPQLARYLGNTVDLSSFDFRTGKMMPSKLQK

Sequence of MBD2 MBD R188K (Q9UBB5 143-220 R188K): as the sequence (Q9UBB5 143-220 R166K/R188K) above, with K24R counted along it

B1: mCG dsDNA 12mer (dsDNA)
DNA 1: GCCAACGTTGGC
DNA 2: GCCAACGTTGGC
modifications: 5-methyl-C at position 6 of both strands
Consider B1, for which binding in series [1] was put at a Kd of 7.5 ± 0.4 µM. Moreover, in series [2], the binding result was “no binding”.

By Kd is commonly meant a measure of binding affinity in units of concentration. Lower therefore signals tighter binding.
